According to IntAct's records for PubMed 31515488:

B1: Transcription factor 12 (Homo sapiens), Q99081-3 (parent)
chain: MNPQQQRMAAIGTDKELSDLLDFSAMFSPPVNSGKTRPTTLGSSQFSGSGIDERGGTTSWGTSGQPSPSYDSSRGFTDSPHYSDHLNDSRLGAHEGLSPTPFMNSNLMGKTSERGSFSLYSRDTGLPGCQSSLLRQDLGLGSPAQLSSSGKPGTAYYSFSATSSRRRPLHDSAALDPLQAKKVRKVPPGLPSSVYAPSPNSDDFNRESPSYPSPKPPTSMFASTFFMQDGTHNSSDLWSSSNGMSQPGFGGILGTSTSHMSQSSSYGNLHSHDRLSYPPHSVSPTDINTSLPPMSSFHRGSTSSSPYVAASHTPPINGSDSILGTRGNAAGSSQTGDALGKALASIYSPDHTSSSFPSNPSTPVGSPSPLTGTSQWPRPGGQAPSSPSYENSLHSLKNRVEQQLHEHLQDAMSFLKDVCEQSRMEDRLDRLDDAIHVLRNHAVGPSTSLPAGHSDIHSLLGPSHNAPIGSLNSNYGGSSLVASSRSASMVGTHREDSVSLNGNHSVLSSTVTTSSTDLNHKTQENYRGGLQSQSGTVVTTEIKTENKEKDENLHEPPSSDDMKSDDESSQKDIKVSSRGRTSSTNEDEDLNPEQKIEREKERRMANNARERLRVRDINEAFKELGRMCQLHLKSEKPQTKLLILHQAVAVILSLEQQVRERNLNPKAACLKRREEEKVSAVSAEPPTTLPGTHPGLSETTNPMGHM
partner: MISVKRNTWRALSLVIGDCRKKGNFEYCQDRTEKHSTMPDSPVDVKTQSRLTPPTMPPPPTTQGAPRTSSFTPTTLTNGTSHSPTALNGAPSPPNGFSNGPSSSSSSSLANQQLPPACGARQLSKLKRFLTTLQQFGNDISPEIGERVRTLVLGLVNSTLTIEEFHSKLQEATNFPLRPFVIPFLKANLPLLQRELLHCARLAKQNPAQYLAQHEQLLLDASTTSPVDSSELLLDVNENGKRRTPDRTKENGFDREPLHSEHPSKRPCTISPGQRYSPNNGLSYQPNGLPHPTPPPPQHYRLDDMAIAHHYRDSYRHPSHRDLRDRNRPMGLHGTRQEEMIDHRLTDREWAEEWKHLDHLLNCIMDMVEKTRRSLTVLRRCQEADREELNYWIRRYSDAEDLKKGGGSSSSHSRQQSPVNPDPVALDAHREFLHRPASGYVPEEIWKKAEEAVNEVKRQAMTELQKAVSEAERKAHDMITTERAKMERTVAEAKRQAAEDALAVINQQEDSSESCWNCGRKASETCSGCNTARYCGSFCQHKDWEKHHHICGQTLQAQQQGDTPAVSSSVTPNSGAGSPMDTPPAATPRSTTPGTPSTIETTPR
B2: Protein DBF4 homolog B (Homo sapiens), Q8NFT6 (parent)
chain: MSEPGKGDDCLELESSMAESRLRAPDLGVSRCLGKCQKNSPGARKHPFSGKSFYLDLPAGKNLQFLTGAIQQLGGVIEGFLSKEVSYIVSSRREVKAESSGKSHRGCPSPSPSEVRVETSAMVDPKGSHPRPSRKPVDSVPLSRGKELLQKAIRNQGSISGGGSGGSSSLLTNARSWGVRILHVDEMMMHVQQLSLASLCVKKQQPKKPEGTCPAAESRTRKVARLKAPFLKIEDESRKFRPFHHQFKSFPEISFLGPKDASPFEAPTTLGSMHHTRESKDGEPSPRSAAHTMPRRKKGYCECCQEAFEELHVHLQSAQHRSFALEAHLYAEVDRIIAQLSHSFADIPFQAGLPRWSGSPASDCDPLCPETLHPHQPSHPRAASPRIRKEDSCQASVTQGRAAGQQRWTESLDGVMGPPASHTCVSATTLLPALPKGSREQGCLCPCPASFTQSHLVTSLALLPGEWSPAEDMPLHPSQENSFAPADIPVKGPLLFPEARPWLMSARCWVRPFPFVTWGCLIPHDTTPLHEEVSPCPCLRLGYLYLLLTQSLWCRVRVPSLSTAGPIPRTSHPCTLAFPSYLNDHDLGHLCQAKPQGWNTPQPFLHCGFLAVDSG
partner: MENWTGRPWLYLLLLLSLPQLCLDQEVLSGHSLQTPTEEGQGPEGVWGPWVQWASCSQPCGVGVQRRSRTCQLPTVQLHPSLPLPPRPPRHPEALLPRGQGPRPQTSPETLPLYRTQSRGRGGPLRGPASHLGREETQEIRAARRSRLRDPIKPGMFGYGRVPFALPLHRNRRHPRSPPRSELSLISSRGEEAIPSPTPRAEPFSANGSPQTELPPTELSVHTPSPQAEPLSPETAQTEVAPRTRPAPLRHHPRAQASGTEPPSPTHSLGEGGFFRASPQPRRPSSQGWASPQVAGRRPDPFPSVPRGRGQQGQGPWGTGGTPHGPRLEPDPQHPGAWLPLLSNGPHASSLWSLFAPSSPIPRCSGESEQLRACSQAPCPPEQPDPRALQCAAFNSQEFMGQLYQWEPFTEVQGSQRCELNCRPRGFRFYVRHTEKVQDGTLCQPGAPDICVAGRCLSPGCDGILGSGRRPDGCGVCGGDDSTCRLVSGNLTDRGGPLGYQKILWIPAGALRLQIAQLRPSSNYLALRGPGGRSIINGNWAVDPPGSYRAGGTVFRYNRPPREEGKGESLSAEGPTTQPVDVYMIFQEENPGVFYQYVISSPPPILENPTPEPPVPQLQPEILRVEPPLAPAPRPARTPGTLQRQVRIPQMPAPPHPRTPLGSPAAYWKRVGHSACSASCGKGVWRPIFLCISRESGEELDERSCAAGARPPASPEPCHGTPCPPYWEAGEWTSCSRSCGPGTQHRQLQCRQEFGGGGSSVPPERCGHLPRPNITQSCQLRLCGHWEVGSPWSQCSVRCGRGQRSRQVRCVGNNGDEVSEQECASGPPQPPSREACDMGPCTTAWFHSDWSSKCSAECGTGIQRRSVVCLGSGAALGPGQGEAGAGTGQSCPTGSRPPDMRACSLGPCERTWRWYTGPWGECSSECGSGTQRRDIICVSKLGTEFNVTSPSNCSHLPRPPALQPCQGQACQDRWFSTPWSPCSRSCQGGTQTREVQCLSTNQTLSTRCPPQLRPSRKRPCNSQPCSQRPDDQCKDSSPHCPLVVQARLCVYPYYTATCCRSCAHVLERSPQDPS
B3: Peroxisomal membrane protein 11C (Homo sapiens), Q96HA9 (parent)
chain: MASLSGLASALESYRGRDRLIRVLGYCCQLVGGVLVEQCPARSEVGTRLLVVSTQLSHCRTILRLFDDLAMFVYTKQYGLGAQEEDAFVRCVSVLGNLADQLYYPCEHVAWAADARVLHVDSSRWWTLSTTLWALSLLLGVARSLWMLLKLRQRLRSPTAPFTSPLPRGKRRAMEAQMQSEALSLLSNLADLANAVHWLPRGVLWAGRFPPWLVGLMGTISSILSMYQAARAGGQAEATTP
partner: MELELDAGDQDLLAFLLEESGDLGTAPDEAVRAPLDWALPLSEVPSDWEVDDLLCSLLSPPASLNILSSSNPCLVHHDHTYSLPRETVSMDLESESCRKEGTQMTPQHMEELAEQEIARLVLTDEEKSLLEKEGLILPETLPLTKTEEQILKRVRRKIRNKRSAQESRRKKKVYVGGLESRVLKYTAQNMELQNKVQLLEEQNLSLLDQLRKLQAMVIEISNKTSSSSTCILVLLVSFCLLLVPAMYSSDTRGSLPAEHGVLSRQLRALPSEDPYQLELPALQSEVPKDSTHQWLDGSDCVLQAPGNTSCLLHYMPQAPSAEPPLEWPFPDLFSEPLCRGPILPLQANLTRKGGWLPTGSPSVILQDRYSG
B4: Cyclin-H (Homo sapiens), P51946 (parent)
chain: MYHNSSQKRHWTFSSEEQLARLRADANRKFRCKAVANGKVLPNDPVFLEPHEEMTLCKYYEKRLLEFCSVFKPAMPRSVVGTACMYFKRFYLNNSVMEYHPRIIMLTCAFLACKVDEFNVSSPQFVGNLRESPLGQEKALEQILEYELLLIQQLNFHLIVHNPYRPFEGFLIDLKTRYPILENPEILRKTADDFLNRIALTDAYLLYTPSQIALTAILSSASRAGITMESYLSESLMLKENRTCLSQLLDIMKSMRNLVKKYEPPRSEEVAVLKQKLERCHSAELALNVITKKRKGYEDDDYVSKKSKHEEEEWTDDDLVESL
partner: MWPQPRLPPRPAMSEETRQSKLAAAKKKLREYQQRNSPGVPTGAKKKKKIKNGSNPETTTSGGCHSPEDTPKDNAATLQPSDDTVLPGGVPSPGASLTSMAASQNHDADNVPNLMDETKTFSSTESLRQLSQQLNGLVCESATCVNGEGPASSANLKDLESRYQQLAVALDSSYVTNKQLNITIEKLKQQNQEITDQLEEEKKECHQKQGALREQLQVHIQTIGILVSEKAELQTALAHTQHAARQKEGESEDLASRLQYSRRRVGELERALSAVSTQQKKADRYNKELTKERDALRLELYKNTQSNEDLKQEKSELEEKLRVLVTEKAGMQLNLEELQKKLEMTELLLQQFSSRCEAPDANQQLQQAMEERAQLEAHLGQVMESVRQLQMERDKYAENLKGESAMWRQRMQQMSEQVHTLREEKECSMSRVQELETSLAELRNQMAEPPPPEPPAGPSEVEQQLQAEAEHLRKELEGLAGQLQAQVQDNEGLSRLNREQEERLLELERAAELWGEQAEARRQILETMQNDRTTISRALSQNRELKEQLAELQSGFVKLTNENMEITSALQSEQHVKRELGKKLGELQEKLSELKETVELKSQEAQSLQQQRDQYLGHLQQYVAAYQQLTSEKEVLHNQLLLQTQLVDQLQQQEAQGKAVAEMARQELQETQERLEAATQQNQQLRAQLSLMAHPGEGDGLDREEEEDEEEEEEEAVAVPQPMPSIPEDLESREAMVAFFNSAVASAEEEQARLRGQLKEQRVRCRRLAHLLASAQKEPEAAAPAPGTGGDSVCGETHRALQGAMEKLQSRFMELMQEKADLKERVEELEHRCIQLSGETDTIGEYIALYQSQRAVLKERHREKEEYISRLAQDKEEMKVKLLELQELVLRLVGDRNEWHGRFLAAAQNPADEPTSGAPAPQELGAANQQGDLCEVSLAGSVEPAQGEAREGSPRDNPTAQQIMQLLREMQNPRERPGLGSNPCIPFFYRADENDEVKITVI
B5: Zinc finger protein Aiolos (Homo sapiens), Q9UKT9 (parent)
chain: MEDIQTNAELKSTQEQSVPAESAAVLNDYSLTKSHEMENVDSGEGPANEDEDIGDDSMKVKDEYSERDENVLKSEPMGNAEEPEIPYSYSREYNEYENIKLERHVVSFDSSRPTSGKMNCDVCGLSCISFNVLMVHKRSHTGERPFQCNQCGASFTQKGNLLRHIKLHTGEKPFKCHLCNYACQRRDALTGHLRTHSVEKPYKCEFCGRSYKQRSSLEEHKERCRTFLQSTDPGDTASAEARHIKAEMGSERALVLDRLASNVAKRKSSMPQKFIGEKRHCFDVNYNSSYMYEKESELIQTRMMDQAINNAISYLGAEALRPLVQTPPAPTSEMVPVISSMYPIALTRAEMSNGAPQELEKKSIHLPEKSVPSERGLSPNNSGHDSTDTDSNHEERQNHIYQQNHMVLSRARNGMPLLKEVPRSYELLKPPPICPRDSVKVINKEGEVMDVYRCDHCRVLFLDYVMFTIHMGCHGFRDPFECNMCGYRSHDRYEFSSHIARGEHRALLK
partner: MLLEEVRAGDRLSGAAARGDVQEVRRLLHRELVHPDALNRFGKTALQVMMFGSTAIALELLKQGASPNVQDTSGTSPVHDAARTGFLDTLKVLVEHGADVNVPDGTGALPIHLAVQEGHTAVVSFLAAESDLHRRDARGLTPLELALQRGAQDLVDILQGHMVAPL

Variants of: B1
Conditions: with mtg8_human RUNX1T1, Q06455

effect of a mutation on the interaction | Variant
with no effect | A155T
with no effect | S446F

Variants of: B2
Conditions: with atl4_human ADAMTSL4, Q6UY14

effect of a mutation on the interaction | Variant
with no effect | L199S

Variants of: B3
Conditions: with creb3_human CREB3, O43889

effect of a mutation on the interaction | Variant
with no effect | C91W

Variants of: B4
Conditions: with goga2_human GOLGA2, Q08379

effect of a mutation on the interaction | Variant
disrupting interaction strength | N155T

Variants of: B5
Conditions: with cdn2d_human CDKN2D

effect of a mutation on the interaction | Variant
with no effect | A24V
